From patent US5849885

Target: casein fraction of whole cow milk
Test: competitive inhibition RIA of bLF in the casein pellet after centrifugation of whole cow milk, no addition (mean + SD, n=10); the same table gives 4 with +0.4M NaCl and 32 after acid precipitation

- % of total bLF found in the casein fraction: 21%
Substance: bovine lactoferrin (from UniProt P24627)
